{"source": "paper PMC12344693", "about": "“Human Milk Oligosaccharides Multivalently Presented on Defined Synthetic Neo-Glycoproteins Are Nanomolar Ligands of Tandem-Repeat Galectins” (Biomacromolecules, 2025)", "key": {"Gal-4 [1]": {"target": "T1, Gal-4 (Homo sapiens, UniProt P56470)", "T1 construct": "Full-length recombinant human galectins (Gal-1, Gal-3, Gal-4, Gal-8, and Gal-9) for ELISA assays; made in house; host or cells: E. coli Rosetta 2(DE3)pLysS", "T1 sequence (P56470 1-323)": "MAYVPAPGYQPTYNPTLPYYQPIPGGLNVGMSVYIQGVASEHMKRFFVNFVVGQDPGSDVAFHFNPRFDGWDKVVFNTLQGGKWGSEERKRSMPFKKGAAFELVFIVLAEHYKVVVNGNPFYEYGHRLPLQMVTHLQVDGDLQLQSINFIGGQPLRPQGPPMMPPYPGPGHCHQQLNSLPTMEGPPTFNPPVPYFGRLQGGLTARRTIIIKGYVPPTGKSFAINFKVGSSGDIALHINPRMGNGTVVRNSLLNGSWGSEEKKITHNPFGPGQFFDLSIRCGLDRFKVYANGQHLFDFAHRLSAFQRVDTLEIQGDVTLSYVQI", "test": "direct ELISA, galectin binding to immobilized asialofetuin", "conditions": "AVI-tagged Gal-4, read-out: KD for ASF, AVI-tag", "procedure": "(§1) detailed in the main text.\n(§2) respective galectin in EPBS (50 μL/well)."}, "Gal-4C [2]": {"target": "T2, Gal-4C (Homo sapiens, UniProt P56470)", "T2 construct": "Tandem-repeat galectins consist of an N-terminal and a C-terminal carbohydrate recognition domain (CRD) interconnected with a peptide linker; His-tag; made in house; host or cells: E. coli", "T2 sequence (P56470 194-323 limits assumed)": "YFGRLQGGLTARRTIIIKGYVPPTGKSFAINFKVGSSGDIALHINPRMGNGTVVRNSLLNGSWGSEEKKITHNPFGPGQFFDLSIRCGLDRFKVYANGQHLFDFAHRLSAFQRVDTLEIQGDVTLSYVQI", "test": "direct ELISA, galectin binding to immobilized asialofetuin", "conditions": "AVI-tagged Gal-4C, read-out: KD for ASF, AVI-tag", "procedure": "as §1, §2"}, "Gal-4N [3]": {"target": "T3, Gal-4N (Homo sapiens, UniProt P56470)", "T3 construct": "Tandem-repeat galectins consist of an N-terminal and a C-terminal carbohydrate recognition domain (CRD) interconnected with a peptide linker; His-tag; made in house; host or cells: E. coli", "T3 sequence (P56470 19-150 limits assumed)": "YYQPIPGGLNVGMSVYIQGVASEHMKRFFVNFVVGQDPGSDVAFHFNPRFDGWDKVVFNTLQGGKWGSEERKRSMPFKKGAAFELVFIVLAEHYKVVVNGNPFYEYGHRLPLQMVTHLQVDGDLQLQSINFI", "test": "direct ELISA, galectin binding to immobilized asialofetuin", "conditions": "AVI-tagged Gal-4N, read-out: KD for ASF, AVI-tag", "procedure": "as §1, §2"}, "Gal-8 [4]": {"target": "T4, Gal-8 (Homo sapiens, UniProt O00214)", "T4 construct": "Full-length recombinant human galectins (Gal-1, Gal-3, Gal-4, Gal-8, and Gal-9) for ELISA assays; made in house; host or cells: E. coli Rosetta 2(DE3)pLysS", "T4 sequence (O00214 1-317)": "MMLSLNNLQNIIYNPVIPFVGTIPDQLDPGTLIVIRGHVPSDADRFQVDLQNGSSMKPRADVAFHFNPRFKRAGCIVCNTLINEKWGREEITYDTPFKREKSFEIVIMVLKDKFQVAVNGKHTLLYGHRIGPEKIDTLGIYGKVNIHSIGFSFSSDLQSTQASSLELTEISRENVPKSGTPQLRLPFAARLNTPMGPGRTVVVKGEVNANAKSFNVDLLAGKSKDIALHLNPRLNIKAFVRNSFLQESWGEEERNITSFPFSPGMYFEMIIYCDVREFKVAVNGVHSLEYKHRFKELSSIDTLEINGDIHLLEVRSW", "test": "direct ELISA, galectin binding to immobilized asialofetuin", "conditions": "AVI-tagged Gal-8, read-out: KD for ASF, AVI-tag", "procedure": "as §1, §2"}, "Gal-8C [5]": {"target": "T5, Gal-8C (Homo sapiens, UniProt O00214)", "T5 construct": "Tandem-repeat galectins consist of an N-terminal and a C-terminal carbohydrate recognition domain (CRD) interconnected with a peptide linker; His-tag; made in house; host or cells: E. coli", "T5 sequence (O00214 187-317 limits assumed)": "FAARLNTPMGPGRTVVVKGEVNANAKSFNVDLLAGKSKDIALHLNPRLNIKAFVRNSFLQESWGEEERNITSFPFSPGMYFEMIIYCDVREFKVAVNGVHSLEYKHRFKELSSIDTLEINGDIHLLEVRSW", "test": "direct ELISA, galectin binding to immobilized asialofetuin", "conditions": "AVI-tagged Gal-8C, read-out: KD for ASF, AVI-tag", "procedure": "as §1, §2"}, "Gal-8N [6]": {"target": "T6, Gal-8N (Homo sapiens, UniProt O00214)", "T6 construct": "Tandem-repeat galectins consist of an N-terminal and a C-terminal carbohydrate recognition domain (CRD) interconnected with a peptide linker; His-tag; made in house; host or cells: E. coli", "T6 sequence (O00214 19-152 limits assumed)": "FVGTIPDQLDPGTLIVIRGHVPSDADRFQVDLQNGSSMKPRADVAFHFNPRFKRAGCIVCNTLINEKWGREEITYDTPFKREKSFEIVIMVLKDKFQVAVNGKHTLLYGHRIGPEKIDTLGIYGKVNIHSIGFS", "test": "direct ELISA, galectin binding to immobilized asialofetuin", "conditions": "AVI-tagged Gal-8N, read-out: KD for ASF, AVI-tag", "procedure": "as §1, §2"}, "Gal-9 [7]": {"target": "T7, Gal-9 (Homo sapiens, UniProt O00182, A222P/DEL149-219)", "T7 construct": "Full-length recombinant human galectins (Gal-1, Gal-3, Gal-4, Gal-8, and Gal-9) for ELISA assays; made in house; host or cells: E. coli Rosetta 2(DE3)pLysS", "T7 sequence (O00182 with tags, fused parts or gaps DEL149-219/A222P)": "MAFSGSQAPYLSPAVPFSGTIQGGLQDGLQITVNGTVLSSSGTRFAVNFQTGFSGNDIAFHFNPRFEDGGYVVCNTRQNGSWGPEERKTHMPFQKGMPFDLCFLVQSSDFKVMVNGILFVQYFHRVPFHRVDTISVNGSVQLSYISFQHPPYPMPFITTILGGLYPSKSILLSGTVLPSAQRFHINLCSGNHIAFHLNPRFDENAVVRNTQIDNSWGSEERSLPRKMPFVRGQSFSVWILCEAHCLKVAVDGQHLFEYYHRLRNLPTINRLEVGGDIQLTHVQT", "test": "direct ELISA, galectin binding to immobilized asialofetuin", "conditions": "AVI-tagged Gal-9, read-out: KD for ASF, AVI-tag", "procedure": "as §1, §2"}, "Gal-9C [8]": {"target": "T8, Gal-9C (Homo sapiens, UniProt O00182, A222P)", "T8 construct": "Tandem-repeat galectins consist of an N-terminal and a C-terminal carbohydrate recognition domain (CRD) interconnected with a peptide linker; His-tag; made in house; host or cells: E. coli", "T8 sequence (O00182 220-355 A222P)": "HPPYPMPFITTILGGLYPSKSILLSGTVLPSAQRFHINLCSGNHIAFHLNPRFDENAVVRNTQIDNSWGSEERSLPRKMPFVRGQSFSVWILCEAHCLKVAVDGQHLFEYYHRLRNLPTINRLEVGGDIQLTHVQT", "test": "direct ELISA, galectin binding to immobilized asialofetuin", "conditions": "AVI-tagged Gal-9C, read-out: KD for ASF, AVI-tag", "procedure": "as §1, §2"}, "Gal-9N [9]": {"target": "T9, Gal-9N (Homo sapiens, UniProt O00182, DELINS149-222HPP)", "T9 construct": "Tandem-repeat galectins consist of an N-terminal and a C-terminal carbohydrate recognition domain (CRD) interconnected with a peptide linker; His-tag; made in house; host or cells: E. coli", "T9 sequence (O00182 with tags, fused parts or gaps DELINS149-222HPP)": "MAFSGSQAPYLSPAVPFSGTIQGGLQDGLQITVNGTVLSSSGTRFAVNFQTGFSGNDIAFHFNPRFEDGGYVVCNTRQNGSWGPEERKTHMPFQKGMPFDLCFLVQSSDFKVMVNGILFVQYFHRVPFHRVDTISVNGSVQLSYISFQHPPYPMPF", "test": "direct ELISA, galectin binding to immobilized asialofetuin", "conditions": "AVI-tagged Gal-9N, read-out: KD for ASF, AVI-tag", "procedure": "as §1, §2"}, "Gal-4 [10]": {"target": "T1, Gal-4", "design": "method as in ref 11 (a number printed in a supplementary file, which may have a reference list of its own: not looked up in the article's list)", "conditions": "direct ELISA; His-tagged Gal-4; read-out: KD for ASF, His-tag; cited from earlier work"}, "Gal-4N [11]": {"target": "T3, Gal-4N", "design": "method as in ref 11 (a number printed in a supplementary file, which may have a reference list of its own: not looked up in the article's list)", "conditions": "direct ELISA; His-tagged Gal-4N; read-out: KD for ASF, His-tag; cited from earlier work"}, "Gal-4C [12]": {"target": "T2, Gal-4C", "design": "method as in ref 11 (a number printed in a supplementary file, which may have a reference list of its own: not looked up in the article's list)", "conditions": "direct ELISA; His-tagged Gal-4C; read-out: KD for ASF, His-tag; cited from earlier work"}, "Gal-8 [13]": {"target": "T4, Gal-8", "design": "method as in ref 19 (a number printed in a supplementary file, which may have a reference list of its own: not looked up in the article's list)", "conditions": "direct ELISA; His-tagged Gal-8; read-out: KD for ASF, His-tag; cited from earlier work"}, "Gal-8N [14]": {"target": "T6, Gal-8N", "design": "method as in ref 19 (a number printed in a supplementary file, which may have a reference list of its own: not looked up in the article's list)", "conditions": "direct ELISA; His-tagged Gal-8N; read-out: KD for ASF, His-tag; cited from earlier work"}, "Gal-8C [15]": {"target": "T5, Gal-8C", "design": "method as in ref 19 (a number printed in a supplementary file, which may have a reference list of its own: not looked up in the article's list)", "conditions": "direct ELISA; His-tagged Gal-8C; read-out: KD for ASF, His-tag; cited from earlier work"}, "Gal-9 [16]": {"target": "T7, Gal-9", "design": "method as in ref 19 (a number printed in a supplementary file, which may have a reference list of its own: not looked up in the article's list)", "conditions": "direct ELISA; His-tagged Gal-9; read-out: KD for ASF, His-tag; cited from earlier work"}, "Gal-9N [17]": {"target": "T9, Gal-9N", "design": "method as in ref 19 (a number printed in a supplementary file, which may have a reference list of its own: not looked up in the article's list)", "conditions": "direct ELISA; His-tagged Gal-9N; read-out: KD for ASF, His-tag; cited from earlier work"}, "Gal-9C [18]": {"target": "T8, Gal-9C", "design": "method as in ref 19 (a number printed in a supplementary file, which may have a reference list of its own: not looked up in the article's list)", "conditions": "direct ELISA; His-tagged Gal-9C; read-out: KD for ASF, His-tag; cited from earlier work"}}, "note": "Read-outs that look alike come from different tables or passages of the source."}
{"substance": "ASF: asialofetuin, glycoprotein immobilized on ELISA plates as galectin ligand", "values": [{"measurement": "Kd", "setting": "Gal-4 [1]", "value": "2.3 ± 0.8", "unit": "µM"}, {"measurement": "Kd", "setting": "Gal-4C [2]", "value": "6.5 ± 1.2", "unit": "µM"}, {"measurement": "Kd", "setting": "Gal-4N [3]", "value": "17 ± 2", "unit": "µM"}, {"measurement": "Kd", "setting": "Gal-8 [4]", "value": "0.32 ± 0.13", "unit": "µM"}, {"measurement": "Kd", "setting": "Gal-8C [5]", "value": "11 ± 2", "unit": "µM"}, {"measurement": "Kd", "setting": "Gal-8N [6]", "value": "4.6 ± 1.3", "unit": "µM"}, {"measurement": "Kd", "setting": "Gal-9 [7]", "value": "0.18 ± 0.05", "unit": "µM"}, {"measurement": "Kd", "setting": "Gal-9C [8]", "value": "4.9 ± 0.4", "unit": "µM"}, {"measurement": "Kd", "setting": "Gal-9N [9]", "value": "11 ± 4", "unit": "µM"}, {"measurement": "Kd", "setting": "Gal-4 [10]", "value": "3.3 ± 1.1", "unit": "µM"}, {"measurement": "Kd", "setting": "Gal-4N [11]", "value": "38 ± 3", "unit": "µM"}, {"measurement": "Kd", "setting": "Gal-4C [12]", "value": "19 ± 2", "unit": "µM"}, {"measurement": "Kd", "setting": "Gal-8 [13]", "value": "0.14 ± 0.06", "unit": "µM"}, {"measurement": "Kd", "setting": "Gal-8N [14]", "value": "2.3 ± 0.5", "unit": "µM"}, {"measurement": "Kd", "setting": "Gal-8C [15]", "value": "9.4 ± 0.4", "unit": "µM"}, {"measurement": "Kd", "setting": "Gal-9 [16]", "value": "0.15 ± 0.04", "unit": "µM"}, {"measurement": "Kd", "setting": "Gal-9N [17]", "value": "25 ± 6", "unit": "µM"}, {"measurement": "Kd", "setting": "Gal-9C [18]", "value": "3.6 ± 0.5", "unit": "µM"}]}
